The values below come from patent US20120220492A1.

One assay deals with antibody against CD29. Briefly: cell-based or functional assay.
A further assay has as its target antibody against c-kit. Briefly: cell-based or functional assay.

As to “AAV mosaic composed of 25% mutant capsid proteins with a Protein A fragment (Z34C) insertion at position 587 (from UniProt P03135 1-735; P03135 139-735; P03135 203-735; P03135 139-735; P03135 203-735)”, the infectious titers on Jurkat cells (GFP positive cells by FACS) with antibody against CD29 (scale: times higher than virus with a wildtype capsid) is 2 to 3. In the assay with antibody against c-kit, the transduction efficiency on MO7E cells came to 10 fold and the transduction efficiency on MO7E cells (fold higher than wildtype) is 100. In the assay with antibody against c-kit (scale: fold higher than virus with wildtype capsid), the transgene expression stood at 100. In addition, the transgene expression in the assay with antibody against c-kit (scale: times higher than virus with wildtype capsid) was 100000.
In the assay with antibody against CD29, “AAV mosaic composed of 50% mutant capsid proteins with a Protein A fragment (Z34C) insertion at position 587 (from UniProt P03135 1-735; P03135 139-735; P03135 203-735; P03135 139-735; P03135 203-735)” showed an infectivity on Jurkat cells (fold lower than the 25% virus) of 2. The substance also had an infectivity on MO7E cells (fold lower than the 25% virus) in the assay with antibody against c-kit of 3.
